The source of these data is the nanobody polyreactivity screen of Harvey et al. (2022).

This data set is described as follows: yeast display, Sf9 membrane polyspecificity reagent, FACS + sequencing; frameworks hold sequencing errors. The gist of the method: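 Nanobodies came from a synthetic yeast display library in Saccharomyces cerevisiae BJ5465, induced with galactose for 36–48 hours and stained for 1 hour at 4 °C with 10% biotinylated, detergent-solubilized Sf9 membrane reagent. Cells were enriched on streptavidin microbeads and then FACS-sorted, with low and high (top ~1%) gates set on anti-HA fluorescence for expression and streptavidin fluorescence for reagent binding. Each polyreactivity label reflects the gate a clone came from. Genes were amplified by colony PCR, sequenced by MiSeq 2 × 250 and filtered by CDR length.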
On to “QVQLVESGGGLVQAGGSLRLSCAASGFIFGGYAMGWYRQAPGKERELVARITRSGGSTYYADSVKGRFTISRDNAKNTVYLQMNSLKPEDTAVYYCNARYGKPAYQYGMDYWGQGTQVTVSS”, for which the “polyreactivity (PSR sort gate)” value is on record as “low polyreactivity”.

For the sequence “QVQLVESGGGLVQAGGSLRLSCAASGFIFGHNAMGWYRQAPGKERELVASISKSGGDTYYADSVKGRFTISRDNAKNTVYLQMNSLKPEDTAVYYCAAQGAVFEILDYWGQGTQVTVSS”, the “polyreactivity (PSR sort gate)” value is listed as “low polyreactivity”.

As to “QVQLVESGGGLVQAGGSLRLSCAASGFIFGHYAMGWYRQAPGKERELVATISSGGSTKYADSVKGRFTISRDNAKNTVYLQMNSLKPEDTAVYYCAKKLWYLYHHYDYWGQGTQVTVSS”, the “polyreactivity (PSR sort gate)” value is “low polyreactivity”.

For the sequence “QVQLVESGGGLVQAGGSLRLSCAASGFIFGINAMGWYRQAPGKEREFVATITSGGGTNYADSVKGLFTISRDNAKNTVYLQMHSLKPEDTAVYYGAAEEDYIYFYVSMDYWGQGTQVTVSS”, the “polyreactivity (PSR sort gate)” value is listed as “low polyreactivity”.

Consider “QVQLVESGGGLVQAGGSLRLSCAASGFIFGIYAMGWYRQAPGNEWEFVAAITGSAGSTYYADSVKGRFTISRDNAKNTVYLQMNSLKPEDTAVYYCATDVLPRKYDSDYPSGAYDYWGQGTQVTVSS”, for which the “polyreactivity (PSR sort gate)” value was “low polyreactivity”.

For “QVQLVESGGGLVQAGGSLRLSCAASGFIFGKNAMGWYRQAPGKERELVAVISWRGSSTYYADSVKGRFTISRDNAKNTVYLQMNSLKPEDTAVYYCAARYPARGTLYYWGQGTQVTVSS”, the “polyreactivity (PSR sort gate)” value was “low polyreactivity”.

“QVQLVESGGGLVQAGGSLRLSCAASGFIFGKYAMGWYRQAPGKERELVAAISRSSRTFYADSVKGRFTISRDNAKNTVYLQMNSRKPEDTAVYYCAVKKRAPDGDYWGQGTQVTVSS”: the “polyreactivity (PSR sort gate)” value is “high polyreactivity”.

Regarding “QVQLVESGGGLVQAGGSLRLSCAASGFIFGLNAMGWYRPAPGKERELVAAIRSASSTNYADSVKGRFTISRDNAKNTVYLQMNSLKPEDTAVYYCAAEYVTYQQGFWGYDYWGQGTQVTVSS”, the “polyreactivity (PSR sort gate)” value is listed as “low polyreactivity”.

On to “QVQLVESGGGLVQAGGSLRLSCAASGFIFGNYAMGWYRPAPGKERELVATITRRGGRTYYADSVKGRFTISRDNAKNTVYLQMNSLKPEDTAVYYCNAGAYYLLSGQDDMDYWGQGTQVTVSS”, for which the “polyreactivity (PSR sort gate)” value is reported as “high polyreactivity”.

“QVQLVESGGGLVQAGGSLRLSCAASGFIFGPYAMGWYRQAPGKERELVAASWRGGSTYYADSVKGRFTISRDNAKNTVYLQMNSLKPEDTAVYYCAADVFYSLYYYWGQGTQVTVSS”: the “polyreactivity (PSR sort gate)” value was “low polyreactivity”.

As to “QVQLVESGGGLVQAGGSLRLSCAASGFIFGQYAMGWYRQAPGKERELVAAISWSGGRTNYADSVKGRFTISRDNAKNTVYLQMNSLKPEDTAVYYCAARKGKYPQYPYGYWGQGTQVTVSA”, the “polyreactivity (PSR sort gate)” value is recorded as “high polyreactivity”.

For “QVQLVESGGGLVQAGGSLRLSCAASGFIFGRYTMGWYRQAPGKERELVAAITYSGNTYYADSVKGRFTISRDNAKNTVYLQMNSLKPEDTAVYYCNAYGANFRAFRNAYKYWGQGTQVTVSS”, the “polyreactivity (PSR sort gate)” value is recorded as “high polyreactivity”.

In the case of “QVQLVESGGGLVQAGGSLRLSCAASGFIFGSNAMGWYRQAPGKERELVAAISSRGGRTYYADSVKGRFTISRDNAKNTVYLQMNSLKPEDTAVYYCATVRYRALRYDYWGQGTQVTVSS”, the “polyreactivity (PSR sort gate)” value is reported as “high polyreactivity”.

As to “QVQLVESGGGLVQAGGSLRLSCAASGFIFGSYAMGWYRQAPGKERELVAAINWSGGSTYYADSVKGRFTISRDNAKNTVYLQMNSLKPDDTAVYYCAADRTYYSFLYYPWVDFDYWGQGTQVTVSS”, the “polyreactivity (PSR sort gate)” value is given as “high polyreactivity”.

Consider “QVQLVESGGGLVQAGGSLRLSCAASGFIFGTNAMGWYRQAPGKERELVASISSTGGSTYYADSVKGRFTISRDNAKNTVYLQMNSLKPEDTAVYYFSADPYPEYIRYLPGVDYWGQGTQVTVSS”, for which the “polyreactivity (PSR sort gate)” value is “low polyreactivity”.

As to “QVQLVESGGGLVQAGGSLRLSCAASGFIFGTNTMGWYRQAPGKERELVAAITSVGSTNYADSVKGRFTISRDNAKNTVYLQMNSLKPEDTAVYYCPATLYYQYGGDYWGQGTQVTVSS”, the “polyreactivity (PSR sort gate)” value was “low polyreactivity”.

In the case of “QVQLVESGGGLVQAGGSLRLSCAASGFIFGTYAMGWYRQAPGKERELVAAISQSGGRTYYADSVKGRFTISRDNAKNTVYLQMISLKPEDTAVYYCAARHRPTGISTGYDYWGQGTQVTVSS”, the “polyreactivity (PSR sort gate)” value was “high polyreactivity”.

Consider “QVQLVESGGGLVQAGGSLRLSCAASGFIFGTYAMGWYRQAPGKERELVAAISVGGGSTYYADSVKGRFTISRDTAKNTVYLQMNSLKPEDTAVYYCAAVQLYQKHQITYVAHEYWGQGTQVTVSS”, for which the “polyreactivity (PSR sort gate)” value is recorded as “low polyreactivity”.

With “QVQLVESGGGLVQAGGSLRLSCAASGFIFGTYVMGWYRQAPGKERELVAAISESGGRTYYADSVKGRFTISRDNAKNTVYLQMNSLKPEDTADYYCAKLRHIRFHYYYGYQSYYYWVQGTQVTVSS”, the “polyreactivity (PSR sort gate)” value is recorded as “high polyreactivity”.

Turning to “QVQLVESGGGLVQAGGSLRLSCAASGFIFGVNAMGWYRQARGKERELVAAISTSGGSTYYADSVKGRFTISRDNAKNTVYLQMNSLKPEDTAVYYCAALLHRWAYGTYGYVYWGQGSQVTVSS”, the “polyreactivity (PSR sort gate)” value is on record as “high polyreactivity”.

Take “QVQLVESGGGLVQAGGSLRLSCAASGFIFGVYAMGWYRKATGKERELVAAITTRAGTNYADSVKGRFTISRDNAKNTVYLQMNSLKPEDPAVYYCNAVGWYLLPYDYWGQGTQVTVSS”: the “polyreactivity (PSR sort gate)” value is recorded as “low polyreactivity”.

Turning to “QVQLVESGGGLVQAGGSLRLSCAASGFIFGWNAMGWYRQAPGKEREFVAAITSSGTSTYYADSVKGRFTISRDNAKNTVYLQMNSLKPEDTAVYYCATEGWPFYPARDYDYWGQGTQVTVSS”, the “polyreactivity (PSR sort gate)” value is listed as “low polyreactivity”.

For the sequence “QVQLVESGGGLVQAGGSLRLSCAASGFIFGYNAMGWDRQAPGKERELVAAITRSGGRTYYADSVKGRFTISRDNAKNTVSLQMNSLKPEDTAVYYCAASRFATYPRWYDYWGQGTQVTVSS”, the “polyreactivity (PSR sort gate)” value is reported as “low polyreactivity”.

“QVQLVESGGGLVQAGGSLRLSCAASGFIFGYNAMGWYRQAPGKERELVAAISTRGGSTYYADSVKGRFTISRDNAKNTVYLQMNSLKPEDTAVYYCNKVTRVPFDSWGQCTQVTVSS”: the “polyreactivity (PSR sort gate)” value was “high polyreactivity”.

As for “QVQLVESGGGLVQAGGSLRLSCAASGFIFGYNAMGWYRQSPGKERELVAAISTRGGSTYYADSVKGRFTISRDNAKNTVYLQMNSLKPEDTAVYYCNKVTRVPFDSWGQGTQVTVSS”, the “polyreactivity (PSR sort gate)” value was “high polyreactivity”.

Consider “QVQLVESGGGLVQAGGSLRLSCAASGFIFGYNDMGWYRQAPGKERELVAAINSGGSTYYADSVKGRFTISRDNAKNTVYLQMNSLKPEDTAVYYCAADYGYFEYDYWGQGTQVTVSS”, for which the “polyreactivity (PSR sort gate)” value is on record as “low polyreactivity”.

Consider “QVQLVESGGGLVQAGGSLRLSCAASGFIFGYNVMGWYIQAPGKERELVASISTGGRTYYADSVKGRFTISRDNAKNTVYLQMYSLKPEDTAVYYCAARYRSYSYLYYSWGQGTQVTVSS”, for which the “polyreactivity (PSR sort gate)” value was “high polyreactivity”.

Take “QVQLVESGGGLVQAGGSLRLSCAASGFIFGYYAMGGYRQAPGKERELVAAISSSGTRTYYADSVKGRFTISRDNAKNTVYLQMNSLKPEDTAVYYCAVTTAYSGAFYTGEYWGQGTQVTVSS”: the “polyreactivity (PSR sort gate)” value was “high polyreactivity”.

“QVQLVESGGGLVQAGGSLRLSCAASGFIFGYYAMGWYRKAPGKERELVAAITSGDGSTYADSVKGRFTISRDNEKNTVYLQMNSLKPEDTAVYYCAAVFRYYTYSGAVRYYYWGQGTQVTVSS”: the “polyreactivity (PSR sort gate)” value is recorded as “high polyreactivity”.

Consider “QVQLVESGGGLVQAGGSLRLSCAASGFIFGYYAMGWYRQAPGKERDLVAAITSGTGTNYADSVKGRFTISRDNAKISVYLQMIRLKPEDTAVYYCAAYYTWLSEFGYWGQGTQVTVSS”, for which the “polyreactivity (PSR sort gate)” value is listed as “low polyreactivity”.

Take “QVQLVESGGGLVQAGGSLRLSCAASGFIFGYYAMGWYRQAPGKERELVAAISWSGVSTYYADSVKARFTISRDNAKNTVSLQMNSLKREDTAVYYCAFGYVLTGVFQARFDYWGQGTQVTVSS”: the “polyreactivity (PSR sort gate)” value was “high polyreactivity”.

As to “QVQLVESGGGLVQAGGSLRLSCAASGFIFHEYAMGWSRQAPGKERELVAAISSGGGSTYYADSVKGRFTISRDNANNTVYLQMNSLKPEDTAVYYCAADATAYSVLTRDYWGQGTQVTVSS”, the “polyreactivity (PSR sort gate)” value is “high polyreactivity”.

“QVQLVESGGGLVQAGGSLRLSCAASGFIFHTNTMGWYRQAPGKERELVAAISSGGRTNYADSVKGRFTISRDNAKNTVYLQMNSLKPEDTAVYYCAARVGSGFDSWGQGTQVTVSS”: the “polyreactivity (PSR sort gate)” value is on record as “high polyreactivity”.

As to “QVQLVESGGGLVQAGGSLRLSCAASGFIFHYYAMGWYRQAPGKERELVAAISKTGGSTYYADSVKGRFTISRDNAKNTVYLQMNSLKPEDTAVYYCAVARSAYYRGNHWGQGTQVTVSS”, the “polyreactivity (PSR sort gate)” value was “high polyreactivity”.

On to “QVQLVESGGGLVQAGGSLRLSCAASGFIFIAYTMGWYRQAPGKERELVAAISSRGGRTYYADSVKGRFTISRDNAKNTVYLQMNSLKPEDTAVYYCAASYTYYSFGFGTDVRYGYWGQGTQVTVSS”, for which the “polyreactivity (PSR sort gate)” value was “high polyreactivity”.

Take “QVQLVESGGGLVQAGGSLRLSCAASGFIFIRYAMGWYRQAPGKERELVAAISASGVRTYYADSVKGRFTISRDNAKNTVYLQMNSLKPEDTAVYDCAVRSAWVYGIGRYYWGQGTQVTVSS”: the “polyreactivity (PSR sort gate)” value was “high polyreactivity”.

Regarding “QVQLVESGGGLVQAGGSLRLSCAASGFIFIYNAMGWYRQAPGKERELVASITSGGGSTYYADSVKGRFTISRDNAKNTVYLQMNSLKPEDTAVYYCAKQDAVQGAEASGEYDYWGQGTQVTVSS”, the “polyreactivity (PSR sort gate)” value is reported as “low polyreactivity”.

As to “QVQLVESGGGLVQAGGSLRLSCAASGFIFKFYAMGWYRQAPGKETELVAAISKSGGRTYYADSVKGRFTISRDNAKNSVYLQMNSLKPEDTAVYYCNAPSVGAAFDYWGQGTQVTVSS”, the “polyreactivity (PSR sort gate)” value was “high polyreactivity”.

For “QVQLVESGGGLVQAGGSLRLSCAASGFIFKHYAMGWYRPAPGKERELVAAITRSGGRTYYADSVKGRFTISRDYAKNTVYLQMNSLKPEDTAVYYCNVDGKKRHYRHYYLSAYDYWGQGTQVTVSS”, the “polyreactivity (PSR sort gate)” value is listed as “high polyreactivity”.

As to “QVQLVESGGGLVQAGGSLRLSCAASGFIFKIYAMGWYRQAPGKERELVAAISSGDNTNYADSVKGRFTISRDNAKNTVYLQMNSLKPEDNAVYYCAALRYTYLGQLQWSRSGRYDYWGQGTQVTVSS”, the “polyreactivity (PSR sort gate)” value is reported as “high polyreactivity”.
